Measurements: PMC7954791, “MAGIs regulate aPKC to enable balanced distribution of intercellular tension for epithelial sheet homeostasis” (Communications Biology, 2021)

Target: T1, ankyrin-repeat-, SH3-domain- and proline-rich-region-containing protein 2 (ASPP2), FLAG-tagged (UniProt Q8CG79 1-1128)
T1 construct: ASPP2, FLAG-tagged, co-expressed with HA-MAGI-3 in a heterologous expression system; HEK293 is probably the host; also called FLAG-ASPP2; source: heterologous expression system, in lysate
T1 sequence (looked up): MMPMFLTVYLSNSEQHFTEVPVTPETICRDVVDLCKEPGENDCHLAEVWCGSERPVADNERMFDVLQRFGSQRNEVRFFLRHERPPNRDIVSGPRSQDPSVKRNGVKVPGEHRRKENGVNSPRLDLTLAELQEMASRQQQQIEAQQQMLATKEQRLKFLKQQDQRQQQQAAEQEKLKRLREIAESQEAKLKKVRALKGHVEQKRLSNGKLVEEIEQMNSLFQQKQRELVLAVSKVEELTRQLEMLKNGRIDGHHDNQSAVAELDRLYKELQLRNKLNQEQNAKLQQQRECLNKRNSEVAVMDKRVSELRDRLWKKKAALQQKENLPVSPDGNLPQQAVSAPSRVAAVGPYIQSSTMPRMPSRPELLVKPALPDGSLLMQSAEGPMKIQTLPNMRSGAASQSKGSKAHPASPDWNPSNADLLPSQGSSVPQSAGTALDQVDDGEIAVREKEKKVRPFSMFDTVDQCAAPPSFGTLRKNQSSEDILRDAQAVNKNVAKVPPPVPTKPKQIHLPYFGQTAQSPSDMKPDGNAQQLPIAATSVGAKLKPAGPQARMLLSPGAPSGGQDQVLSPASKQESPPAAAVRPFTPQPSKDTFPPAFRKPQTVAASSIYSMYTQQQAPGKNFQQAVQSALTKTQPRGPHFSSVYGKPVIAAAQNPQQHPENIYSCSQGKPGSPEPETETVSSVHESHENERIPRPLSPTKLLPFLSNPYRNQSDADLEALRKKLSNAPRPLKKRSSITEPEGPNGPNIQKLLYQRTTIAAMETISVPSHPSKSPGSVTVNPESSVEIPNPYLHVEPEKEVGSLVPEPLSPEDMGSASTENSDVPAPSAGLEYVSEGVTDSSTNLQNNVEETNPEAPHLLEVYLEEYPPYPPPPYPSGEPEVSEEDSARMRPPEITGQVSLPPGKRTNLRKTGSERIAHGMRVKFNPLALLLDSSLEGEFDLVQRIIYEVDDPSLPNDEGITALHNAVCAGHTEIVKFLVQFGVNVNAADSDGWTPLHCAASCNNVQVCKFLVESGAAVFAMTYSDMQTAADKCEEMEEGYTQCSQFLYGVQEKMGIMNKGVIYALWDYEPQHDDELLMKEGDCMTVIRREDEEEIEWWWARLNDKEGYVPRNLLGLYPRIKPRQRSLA
Assay: co-IP; FLAG immunoprecipitation in a heterologous expression system; FLAG-ASPP2 and HA-MAGI-3 co-expressed with GFP-RASSF10; 20 mM Tris-HCl pH 7.5, 150 mM NaCl, 1% Triton X-100; blot quantified, normalised to GFP control
Settings: partners not purified

B1: MAGI-3 (natural protein, UniProt Q9EQJ9 1-1476, looked up)
chain: MSKTLKKKKHWLSKVQECAVSWAGPPGDLGAEIRGGAERGEFPYLGRLRDEAGGGGGTCCVVSGKAPSPGDVLLEVNGTPVSGLTNRDTLAVIRHFREPIRLKTVKPGKVINKDLRHYLSLQFQKGSIDHKLQQVIRDNLYLRTIPCTTRAPRDGEVPGVDYNFISVEQFKALEESGALLESGTYDGNFYGTPKPPAEPSPFQPDPVDQVLFDNEFDTESQRKRTTSVSKMERMDSSLPEEEEDEDKEAVNGSGSMETREMHSETSDCWMKTVPSYNQTNSSMDFRNYMMRDENLEPLPKNWEMAYTDTGMIYFIDHNTKTTTWLDPRLCKKAKAPEDCEDGELPYGWEKIEDPQYGTYYVDHLNQKTQFENPVEEAKRKKQLGQAEIHSAKTDVERAHFTRDPSQLKGVLVRASLKKSTMGFGFTIIGGDRPDEFLQVKNVLKDGPAAQDGKIAPGDVIVDINGNCVLGHTHADVVQMFQLVPVNQYVNLTLCRGYPLPDDSEDPVVDIVAATPVINGQSLTKGETCMNTQDFKLGAMVLDQNGKSGQILASDRLNGPSESSEQRASLASSGSSQPELVTIPLIKGPKGFGFAIADSPTGQKVKMILDSQWCQGLQKGDIIKEIYHQNVQNLTHLQVVEVLKQFPVGADVPLLILRGGPCSPTKTAKTKTDTKENSGSLETINEPIPQPMPFPPSIIRSGSPKLDPSEVYLKSKTLYEDKPPNTKDLDVFLRKQESGFGFRVLGGDGPDQSIYIGAIIPLGAAEKDGRLRAADELMCIDGIPVKGKSHKQVLDLMTTAARNGHVLLTVRRKIFYGEKQPEDESHQAFSQNGSPRLNRAELPTRSAPQEAYDVTLQRKENEGFGFVILTSKSKPPPGVIPHKIGRVIDGSPADRCGGLKVGDHISAVNGQSIVDLSHDNIVQLIKDAGVTVTLTVVAEEEHHGPPSGTNSARQSPALQHRPMGQAQANHIPGDRIALEGEIGRDVCSSYRHSWSDHKHLAQPDTAVISVVGSRHNQSLGCYPVELERGPRGFGFSLRGGKEYNMGLFILRLAEDGPAIKDGRIHVGDQIVEINGEPTQGITHTRAIELIQAGGNKVLLLLRPGTGLIPDHGDWDTNSPSSSNVIYDEQPPPLPSSHSASTFEESHVPATEDSLTRVQICEKAEELKDTVQEKKSTLNGSQPEMKYQSVHKTMSKKDPPRGSGHGEKSRLKGENGVTRRGRSASPKKSVNRHSEEHLEKIPRPLKSDPKEKSRDRSLSPRKGESKGRLTIKAGSGQDPYRKDRGRSSSPKKQQKIGGNSLSNTEGKLSEAGSRRAAGHPRDSTEQLPDGREKSGVSRKDLKQSQPGKTRTKSPEKKSSKVDETSLPSKKTSSTAGRVVSEKEKGKKPTAGETSRETVEHTQISAKQLKQEAQEKTALGNADDHKGRESEVTDRCRERAGCTPQSSSLVKKAPITPGPWRVPRANKVTGTTGMADKQL
notes: MAGI-3, expressed in a heterologous expression system for FLAG immunoprecipitation; HEK293 is probably the host; also called HA-MAGI-3; MAGI proteins; source: heterologous expression system, in lysate
fold co-precipitation with GFP-RASSF10 co-expressed, over GFP alone: ~4 fold
